Source: paper PMC6019700 (Cell Reports, 2018)

Key:
[1] = target: PC64M18C043 full-length Env (late FL), clade A HIV-1 Env clone no. 43 from the 18 months post-infection … (HIV-1 clade A, donor PC64, clone …, strain, N-linked glycans (N130, N156, N160 and others) | N-linked glycans (N611, N616, N637 and others)); assay: cell-based or functional assay
[2] = target: PC64M4C054 full-length Env (early FL) (HIV-1 clade A, donor PC64, clone …, strain, N-linked glycans | N-linked glycans); assay: cell-based or functional assay

B1: PCT64-35S Fab (late Fab), PCT64 lineage antibody isolated from the month 35 sample (Fab, V domains shown)
VH: EVQLVESGGGLVKPGGSLRLACVGSEFTFSEAWMTWVRQAPGKGLEWVGHMRPTTEGGAKDYAAAVRGRFTIARDDSKSTLYLQMNSLKIEDTGVYYCMTGVERGDFWSDDYSQHYNTYLIDVWGKGTTVTVSS
VL: EIVLTQSPGTLSLSPGDRATLSCRATQSVGGDYFAWYQQRPGQSPRLLIYGTSRRAAGIPDRFSGSGSGTDFTLTIDRLEPEDFAVYYCRQYETSFTFGPGTKVDIK
- neutralisation of late M18 virus by the antibody PCT64-35S, IC50 [1]: 9 µg/mL

B2: PGT151 Fab (Fab, V domains shown)
VH: RVQLVESGGGVVQPGKSVRLSCVVSDFPFSKYPMYWVRQAPGKGLEWVAAISGDAWHVVYSNSVQGRFLVSRDNVKNTLYLEMNSLKIEDTAVYRCARMFQESGPPRLDRWSGRNYYYYSGMDVWGQGTTVTVSS
VL: DIVMTQTPLSLSVTPGQPASISCKSSESLRQSNGKTSLYWYRQKPGQSPQLLVFEVSNRFSGVSDRFVGSGSGTDFTLRISRVEAEDVGFYYCMQSKDFPLTFGGGTKVDLK
- neutralisation of late Env pseudovirus, IC50 [1]: 0.0013 µg/mL

B3: PCT64-13C Fab (early Fab), PCT64 lineage antibody isolated from month 13 (Fab, V domains shown)
VH: EVQLVESGGGLVKPGGSLRLSCAASGFTFTNAWLDWVRQAPGKGLEWVGRIKSKTDGGTTDHAAPVKGRFTISRDDSKNTVYLQMNSLKIEDTAVYYCTTGVETYDFWSGYDDHYYDYYFKDVWGKGTTVTVSS
VL: EIVLTQSPGTLSLSPGERATLSCRASQSVSNNYLAWYQQKPGQAPRLLIYGASSRATGIPDRFSGSGSGTDFTLTISRLEPEDFAVYYCQQSARSFTFGPGTKVDIK
- neutralisation of early M4 virus by the antibody PCT64-13C, IC50 [2]: 0.0229 µg/mL
